The results in this text go back to the supplement of paper PMC10724198.

± gives the standard deviation of the averaged measurements.

This series relates to Saccharomyces cerevisiae. The series can be described thus: protein stability index of tFT-peptide fusion (C-terminal peptide) (PSI (0-1 scale)); higher = more stable (slower turnover). The following applies: temperature: 30 C. As for the experimental part:
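MPS profiling in S. cerevisiae of the yeast C-terminome library: the last 12 aa of each annotated ORF are fused to the C-terminus of a sfGFP-mCherry timer, after a GGGS linker. Cells are FACS-sorted into 8 mCherry/sfGFP bins and deep-sequenced. PSI runs from 0 (unstable) to 1 (stable); wild type and das1Δ backgrounds, two technical replicates each.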

The mark [1] stands for this setting: genetic background: das1 deletion.

Turning to ITNEVNIYSPFF [YOR105W C-terminal 12 aa], the protein stability index is, setting by setting: under setting [1], 0.73841 ± 0.00012; (genetic background: wild type) 0.7762 ± 0.0059.

For IVFVPSSSYSVN [YJR157W C-terminal 12 aa], the protein stability index is, setting by setting: under setting [1], 0.711 ± 0.014; (genetic background: wild type) 0.671 ± 0.021.

Regarding IVILIFDRLLSN [YGL081W C-terminal 12 aa], the protein stability index was found to be 0.394 ± 0.021 under setting [1] and 0.425 ± 0.03 (genetic background: wild type).

On to IVIQVNNPLTRA [DOG1 C-terminal 12 aa], for which the protein stability index runs as follows: under setting [1], 0.66 ± 0.011; (genetic background: wild type) 0.7098 ± 0.0059.

Take IVIQVNNPLTRD [DOG2 C-terminal 12 aa]: the protein stability index under setting [1] came out at 0.692 ± 0.099 and the protein stability index (genetic background: wild type) was 0.643 ± 0.0052.

For the sequence IVQLGMSHGDIS [SMF1 C-terminal 12 aa], the protein stability index under setting [1] was found to be 0.711 ± 0.028 and the protein stability index (genetic background: wild type) amounted to 0.699 ± 0.023.

“IYAALPKSKIKL [YMR304C-A C-terminal 12 aa]”: the protein stability index runs as follows: under setting [1], 0.698 ± 0.012; (genetic background: wild type) 0.737 ± 0.013.

For the sequence IYEGFLDHANSF [TFB6 C-terminal 12 aa], the protein stability index by setting is: under setting [1], 0.735 ± 0.011; (genetic background: wild type) 0.745 ± 0.012.

KAEYLKNCPITQ [RPC40 C-terminal 12 aa]: the protein stability index runs as follows: under setting [1], 0.712 ± 0.012; (genetic background: wild type) 0.719 ± 0.028.

Consider KAIRRCQAIGLM [RSM18 C-terminal 12 aa], for which the protein stability index worked out at 0.683 ± 0.014 under setting [1] and 0.672 ± 0.0076 (genetic background: wild type).

Consider KALKWEEQELNM [CCM1 C-terminal 12 aa], for which the protein stability index is, setting by setting: under setting [1], 0.711 ± 0.015; (genetic background: wild type) 0.729 ± 0.057.

KAPKILYKRKGY [HPA2 C-terminal 12 aa]: the protein stability index was determined as 0.685 ± 0.024 under setting [1] and 0.675 ± 0.036 (genetic background: wild type).

KATQAIIGYTFK [VMA13 C-terminal 12 aa]: the protein stability index by setting is: under setting [1], 0.70395 ± 0.00035; (genetic background: wild type) 0.71 ± 0.023.

On to “KCIRGGVFLWII [YGL014C-A C-terminal 12 aa]”, for which the protein stability index worked out at 0.605 ± 0.019 under setting [1] and 0.309 ± 0.0041 (genetic background: wild type).

As for KDELERVAKSNR [RPS5 C-terminal 12 aa], the protein stability index stood at 0.6889 ± 0.0032 under setting [1] and 0.694 ± 0.017 (genetic background: wild type).

For KENSRSWIIYLL [YGL034C C-terminal 12 aa], the protein stability index runs as follows: under setting [1], 0.653 ± 0.016; (genetic background: wild type) 0.556 ± 0.03.

For the sequence KESSTSSEKQIA [THI72 C-terminal 12 aa], the protein stability index is 0.67657 ± 0.00024 under setting [1] and 0.6804 ± 0.0025 (genetic background: wild type).

Take KFSTRMKLAHGK [SLX1 C-terminal 12 aa]: the protein stability index reads like this: under setting [1], 0.698 ± 0.019; (genetic background: wild type) 0.728 ± 0.021.

Turning to KGIKGFFHRIFD [YGR126W C-terminal 12 aa], the protein stability index by setting is: under setting [1], 0.6963 ± 0.002; (genetic background: wild type) 0.68 ± 0.018.

KHLAKALADLIS [JHD1 C-terminal 12 aa]: the protein stability index reads like this: under setting [1], 0.717 ± 0.018; (genetic background: wild type) 0.701 ± 0.032.

As to “KICVTLIVNELI [YLR342W-A C-terminal 12 aa]”, the protein stability index runs as follows: under setting [1], 0.4662 ± 0.0016; (genetic background: wild type) 0.39 ± 0.028.

Turning to KIHTAAIAAFKQ [ATP12 C-terminal 12 aa], the protein stability index reads like this: under setting [1], 0.7013 ± 0.0055; (genetic background: wild type) 0.612 ± 0.033.

On to KILKGAEKKPQL [CNA1 C-terminal 12 aa], for which the protein stability index is 0.689 ± 0.0099 under setting [1] and 0.707 ± 0.022 (genetic background: wild type).

As to KISTHSNAPSPG [SMA1 C-terminal 12 aa], the protein stability index is, setting by setting: under setting [1], 0.669 ± 0.015; (genetic background: wild type) 0.675 ± 0.022.

For the sequence KIWVNIYSTPTS [PLS1 C-terminal 12 aa], the protein stability index under setting [1] amounted to 0.6827 ± 0.0066 and the protein stability index (genetic background: wild type) is 0.705 ± 0.035.

KKKGLFGRMKKK [YMR295C C-terminal 12 aa] registered a protein stability index under setting [1] of 0.719 ± 0.028 and a protein stability index (genetic background: wild type) of 0.69 ± 0.067.

KKKKPAAEGAAK [TMA22 C-terminal 12 aa] displayed a protein stability index under setting [1] of 0.696 ± 0.026 and a protein stability index (genetic background: wild type) of 0.708 ± 0.043.

In the case of KKKSRAKKPGNV [HDA3 C-terminal 12 aa], the protein stability index by setting is: under setting [1], 0.685 ± 0.011; (genetic background: wild type) 0.734 ± 0.041.

KKKVEFSFPDDI [MIL1 C-terminal 12 aa]: the protein stability index stood at 0.701 ± 0.0087 under setting [1] and 0.73 ± 0.016 (genetic background: wild type).

On to KKPLFKRKVLQI [YNL205C C-terminal 12 aa], for which the protein stability index was 0.6883 ± 0.0025 under setting [1] and 0.422 ± 0.011 (genetic background: wild type).

Regarding KKVQSYTLQEDY [BUD13 C-terminal 12 aa], the protein stability index by setting is: under setting [1], 0.695 ± 0.015; (genetic background: wild type) 0.692 ± 0.03.

On to KLDDIIRARRSR [TGL3 C-terminal 12 aa], for which the protein stability index came out at 0.7405 ± 0.0066 under setting [1] and 0.692 ± 0.034 (genetic background: wild type).

Turning to KLENDISVKVED [NTG1 C-terminal 12 aa], the protein stability index runs as follows: under setting [1], 0.6863 ± 0.0054; (genetic background: wild type) 0.674 ± 0.014.

With KLLEESKGLLDV [YJR079W C-terminal 12 aa], the protein stability index was found to be 0.701 ± 0.023 under setting [1] and 0.699 ± 0.013 (genetic background: wild type).

Regarding KNFQEHLRSING [AGC1 C-terminal 12 aa], the protein stability index came to 0.695 ± 0.01 under setting [1] and 0.702 ± 0.032 (genetic background: wild type).

For KNHEMGEEETKF [TCB1 C-terminal 12 aa], the protein stability index is, setting by setting: under setting [1], 0.715 ± 0.0045; (genetic background: wild type) 0.721 ± 0.041.

KNNYSSRNSNIY [MSS116 C-terminal 12 aa]: the protein stability index runs as follows: under setting [1], 0.713 ± 0.0098; (genetic background: wild type) 0.711 ± 0.028.

In turn, KNRKRVLGVAYL [PXP3 C-terminal 12 aa] registered a protein stability index under setting [1] of 0.783 ± 0.022 and a protein stability index (genetic background: wild type) of 0.837 ± 0.063.

With KNWGPKARPNTS [TRM1 C-terminal 12 aa], the protein stability index under setting [1] amounted to 0.698 ± 0.016 and the protein stability index (genetic background: wild type) came to 0.655 ± 0.011.

Regarding KPIEKVYFNRGI [FSF1 C-terminal 12 aa], the protein stability index amounted to 0.713 ± 0.051 under setting [1] and 0.7368 ± 0.0054 (genetic background: wild type).

Consider KPIGEAAAIKEK [YLH47 C-terminal 12 aa], for which the protein stability index by setting is: under setting [1], 0.696 ± 0.027; (genetic background: wild type) 0.707 ± 0.044.

For KQAIYTRATASE [RPS25A C-terminal 12 aa], the protein stability index under setting [1] was found to be 0.693 ± 0.012 and the protein stability index (genetic background: wild type) is 0.687 ± 0.0034.

With KQIDVHLDKNKA [GCD7 C-terminal 12 aa], the protein stability index under setting [1] turned out to be 0.6862 ± 0.004 and the protein stability index (genetic background: wild type) was 0.697 ± 0.0038.

KQIVFEIPSQTN [RPS7B C-terminal 12 aa] came in with a protein stability index under setting [1] of 0.69872 ± 0.00027 and a protein stability index (genetic background: wild type) of 0.673 ± 0.0084.

On to KQMYKYHIIVLF [YBL083C C-terminal 12 aa], for which the protein stability index under setting [1] is 0.305 ± 0.035 and the protein stability index (genetic background: wild type) came out at 0.106 ± 0.0037.

Consider KRFTTNRNGNVI [GEF1 C-terminal 12 aa], for which the protein stability index under setting [1] was found to be 0.732 ± 0.022 and the protein stability index (genetic background: wild type) stood at 0.696 ± 0.027.

For the sequence KSCVSSLRVMAM [YNL276C C-terminal 12 aa], the protein stability index runs as follows: under setting [1], 0.608 ± 0.013; (genetic background: wild type) 0.597 ± 0.023.

With KSEGGDLPHLVQ [SPS4 C-terminal 12 aa], the protein stability index runs as follows: under setting [1], 0.701 ± 0.024; (genetic background: wild type) 0.68 ± 0.013.

In the case of KSKFQERLQQGL [RET3 C-terminal 12 aa], the protein stability index was 0.701 ± 0.0071 under setting [1] and 0.6467 ± 0.0052 (genetic background: wild type).

For the sequence KVKTKKEEGKER [PXA2 C-terminal 12 aa], the protein stability index under setting [1] is 0.698 ± 0.022 and the protein stability index (genetic background: wild type) amounted to 0.654 ± 0.0067.

KVPPRKDGIKFR [RTS2 C-terminal 12 aa]: the protein stability index was found to be 0.728 ± 0.0069 under setting [1] and 0.695 ± 0.018 (genetic background: wild type).

On to KWKKNKKRKFTK [UBP10 C-terminal 12 aa], for which the protein stability index reads like this: under setting [1], 0.729 ± 0.024; (genetic background: wild type) 0.6898 ± 0.0066.

For KWLLKPCIYKRR [RRP8 C-terminal 12 aa], the protein stability index is, setting by setting: under setting [1], 0.717 ± 0.0061; (genetic background: wild type) 0.691 ± 0.016.

KYLNDEQVKLNV [ADE13 C-terminal 12 aa]: the protein stability index by setting is: under setting [1], 0.72 ± 0.026; (genetic background: wild type) 0.68 ± 0.035.

KYTGVYRSSWHG [YLR125W C-terminal 12 aa] gave a protein stability index under setting [1] of 0.701 ± 0.0013 and a protein stability index (genetic background: wild type) of 0.6925 ± 0.0057.

On to KYVTQILYTPLQ [GAL83 C-terminal 12 aa], for which the protein stability index was 0.692 ± 0.0075 under setting [1] and 0.7144 ± 0.0036 (genetic background: wild type).

Consider LAFFKRDFFKGL [NDI1 C-terminal 12 aa], for which the protein stability index runs as follows: under setting [1], 0.699 ± 0.02; (genetic background: wild type) 0.569 ± 0.039.

In the case of LAIEIVLCLKAR [YLR255C C-terminal 12 aa], the protein stability index by setting is: under setting [1], 0.331 ± 0.0034; (genetic background: wild type) 0.355 ± 0.019.

For the sequence LALFAGLISALL [GAS3 C-terminal 12 aa], the protein stability index amounted to 0.71854 ± 0.00069 under setting [1] and 0.654 ± 0.0065 (genetic background: wild type).

As for LCEFLKGVQSAL [DAK1 C-terminal 12 aa], the protein stability index by setting is: under setting [1], 0.7137 ± 0.005; (genetic background: wild type) 0.683 ± 0.011.

In the case of LCLLFFTFSLFF [GAS4 C-terminal 12 aa], the protein stability index is, setting by setting: under setting [1], 0.3594 ± 0.0027; (genetic background: wild type) 0.371 ± 0.016.

As to LDDNELFKNVWS [AGE2 C-terminal 12 aa], the protein stability index was 0.728 ± 0.017 under setting [1] and 0.713 ± 0.017 (genetic background: wild type).

In the case of LDVVKSRGSKHS [HSU1 C-terminal 12 aa], the protein stability index under setting [1] is 0.7099 ± 0.003 and the protein stability index (genetic background: wild type) was determined as 0.7 ± 0.062.

Regarding LEKDTRQDTKAN [MCO10 C-terminal 12 aa], the protein stability index is, setting by setting: under setting [1], 0.693 ± 0.0045; (genetic background: wild type) 0.671 ± 0.025.

Take LENLSQEYCSEI [YBR096W C-terminal 12 aa]: the protein stability index reads like this: under setting [1], 0.715 ± 0.029; (genetic background: wild type) 0.72 ± 0.023.

For LEVYASGNPNAT [NDC1 C-terminal 12 aa], the protein stability index turned out to be 0.697 ± 0.016 under setting [1] and 0.692 ± 0.0073 (genetic background: wild type).

In turn, LEWLSNNLKNQS [ARF2 C-terminal 12 aa] showed a protein stability index under setting [1] of 0.702 ± 0.0047 and a protein stability index (genetic background: wild type) of 0.714 ± 0.041.
